Source: patent US20220298218A1 (ANTAG THERAPEUTICS, published 2022)
*1 amine or outer side, *2 acyl side, *3 side chain or, on linkers, in order; H or OH if unused. Where no end group is shown, it is not given here. Side-chain parts run from the residue outwards. The star is where a group is joined. C18 diacid = O=C(O)CCCCCCCCCCCCCCCCC(=O)*; C16 diacid = O=C(O)CCCCCCCCCCCCCCC(=O)*; γGlu = O=C(O)[C@H](CCC(=O)[*:2])N[*:1]; Stearoyl = CCCCCCCCCCCCCCCCCC(=O)*; AEEA = NCCOCCOCC(=O)O

T1: human GIP receptor (human, UniProt P48546 22-466)
T1 sequence (looked up): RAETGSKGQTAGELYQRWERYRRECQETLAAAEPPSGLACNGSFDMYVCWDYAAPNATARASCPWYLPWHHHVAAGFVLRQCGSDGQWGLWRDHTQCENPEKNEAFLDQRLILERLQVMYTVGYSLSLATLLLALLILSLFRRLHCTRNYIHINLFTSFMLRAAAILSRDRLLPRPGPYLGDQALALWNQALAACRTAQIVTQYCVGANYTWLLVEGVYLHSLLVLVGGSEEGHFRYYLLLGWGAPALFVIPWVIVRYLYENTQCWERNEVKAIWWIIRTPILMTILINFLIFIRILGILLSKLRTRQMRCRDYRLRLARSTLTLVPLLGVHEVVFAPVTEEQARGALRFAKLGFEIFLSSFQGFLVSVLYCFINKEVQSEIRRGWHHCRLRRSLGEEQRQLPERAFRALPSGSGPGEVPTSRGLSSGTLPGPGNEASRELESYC

B1: AT631 (peptide)
peptide: EGTFISDYSIAMDKIK(C16 diacid)QQDFVNWLLAQKPSSGAPPPS-OH
modifications: N-terminus assumed
SMILES: CC[C@H](C)[C@H](NC(=O)[C@H](CO)NC(=O)[C@H](Cc1ccc(O)cc1)NC(=O)[C@H](CC(=O)O)NC(=O)[C@H](CO)NC(=O)[C@@H](NC(=O)[C@H](Cc1ccccc1)NC(=O)[C@@H](NC(=O)CNC(=O)[C@@H](N)CCC(=O)O)[C@@H](C)O)[C@@H](C)CC)C(=O)N[C@@H](C)C(=O)N[C@@H](CCSC)C(=O)N[C@@H](CC(=O)O)C(=O)N[C@@H](CCCCN)C(=O)N[C@H](C(=O)N[C@@H](CCCCNC(=O)CCCCCCCCCCCCCCC(=O)O)C(=O)N[C@@H](CCC(N)=O)C(=O)N[C@@H](CCC(N)=O)C(=O)N[C@@H](CC(=O)O)C(=O)N[C@@H](Cc1ccccc1)C(=O)N[C@H](C(=O)N[C@@H](CC(N)=O)C(=O)N[C@@H](Cc1c[nH]c2ccccc12)C(=O)N[C@@H](CC(C)C)C(=O)N[C@@H](CC(C)C)C(=O)N[C@@H](C)C(=O)N[C@@H](CCC(N)=O)C(=O)N[C@@H](CCCCN)C(=O)N1CCC[C@H]1C(=O)N[C@@H](CO)C(=O)N[C@@H](CO)C(=O)NCC(=O)N[C@@H](C)C(=O)N1CCC[C@H]1C(=O)N1CCC[C@H]1C(=O)N1CCC[C@H]1C(=O)N[C@@H](CO)C(=O)O)C(C)C)[C@@H](C)CC
B2: AT545 (peptide)
peptide: EGTFISDYSIAMDKIK([AEEA-AEEA-γGlu-C18 diacid])QQDFVNWLLAQKGKKNDW-NH2
modifications: N-terminus assumed
SMILES: CC[C@H](C)[C@H](NC(=O)[C@H](CO)NC(=O)[C@H](Cc1ccc(O)cc1)NC(=O)[C@H](CC(=O)O)NC(=O)[C@H](CO)NC(=O)[C@@H](NC(=O)[C@H](Cc1ccccc1)NC(=O)[C@@H](NC(=O)CNC(=O)[C@@H](N)CCC(=O)O)[C@@H](C)O)[C@@H](C)CC)C(=O)N[C@@H](C)C(=O)N[C@@H](CCSC)C(=O)N[C@@H](CC(=O)O)C(=O)N[C@@H](CCCCN)C(=O)N[C@H](C(=O)N[C@@H](CCCCNC(=O)COCCOCCNC(=O)COCCOCCNC(=O)CC[C@H](NC(=O)CCCCCCCCCCCCCCCCC(=O)O)C(=O)O)C(=O)N[C@@H](CCC(N)=O)C(=O)N[C@@H](CCC(N)=O)C(=O)N[C@@H](CC(=O)O)C(=O)N[C@@H](Cc1ccccc1)C(=O)N[C@H](C(=O)N[C@@H](CC(N)=O)C(=O)N[C@@H](Cc1c[nH]c2ccccc12)C(=O)N[C@@H](CC(C)C)C(=O)N[C@@H](CC(C)C)C(=O)N[C@@H](C)C(=O)N[C@@H](CCC(N)=O)C(=O)N[C@@H](CCCCN)C(=O)NCC(=O)N[C@@H](CCCCN)C(=O)N[C@@H](CCCCN)C(=O)N[C@@H](CC(N)=O)C(=O)N[C@@H](CC(=O)O)C(=O)N[C@@H](Cc1c[nH]c2ccccc12)C(N)=O)C(C)C)[C@@H](C)CC
B3: AT546 (peptide)
peptide: EGTFISDYSIAMDKIK([AEEA-AEEA-γGlu-Stearoyl])QQDFVNWLLAQKGKKNDW-OH
modifications: N-terminus assumed
SMILES: CCCCCCCCCCCCCCCCCC(=O)N[C@@H](CCC(=O)NCCOCCOCC(=O)NCCOCCOCC(=O)NCCCC[C@H](NC(=O)[C@@H](NC(=O)[C@H](CCCCN)NC(=O)[C@H](CC(=O)O)NC(=O)[C@H](CCSC)NC(=O)[C@H](C)NC(=O)[C@@H](NC(=O)[C@H](CO)NC(=O)[C@H](Cc1ccc(O)cc1)NC(=O)[C@H](CC(=O)O)NC(=O)[C@H](CO)NC(=O)[C@@H](NC(=O)[C@H](Cc1ccccc1)NC(=O)[C@@H](NC(=O)CNC(=O)[C@@H](N)CCC(=O)O)[C@@H](C)O)[C@@H](C)CC)[C@@H](C)CC)[C@@H](C)CC)C(=O)N[C@@H](CCC(N)=O)C(=O)N[C@@H](CCC(N)=O)C(=O)N[C@@H](CC(=O)O)C(=O)N[C@@H](Cc1ccccc1)C(=O)N[C@H](C(=O)N[C@@H](CC(N)=O)C(=O)N[C@@H](Cc1c[nH]c2ccccc12)C(=O)N[C@@H](CC(C)C)C(=O)N[C@@H](CC(C)C)C(=O)N[C@@H](C)C(=O)N[C@@H](CCC(N)=O)C(=O)N[C@@H](CCCCN)C(=O)NCC(=O)N[C@@H](CCCCN)C(=O)N[C@@H](CCCCN)C(=O)N[C@@H](CC(N)=O)C(=O)N[C@@H](CC(=O)O)C(=O)N[C@@H](Cc1c[nH]c2ccccc12)C(=O)O)C(C)C)C(=O)O
B4: AT547 (peptide)
peptide: EGTFISDYSIAMDKIKQQDFVNWLLAQKGKKNDW
HELM: PEPTIDE1{E.G.T.F.I.S.D.Y.S.I.A.M.D.K.I.K.Q.Q.D.F.V.N.W.L.L.A.Q.K.G.K.K.N.D.W}|PEPTIDE2{[CCCCCCCCCCCCCCCCCC(=O)[*:2]].[gGlu].[gGlu]}$PEPTIDE1,PEPTIDE2,16:R3-3:R2$$$V2.0; N-terminus assumed
SMILES: CCCCCCCCCCCCCCCCCC(=O)N[C@@H](CCC(=O)N[C@@H](CCC(=O)NCCCC[C@H](NC(=O)[C@@H](NC(=O)[C@H](CCCCN)NC(=O)[C@H](CC(=O)O)NC(=O)[C@H](CCSC)NC(=O)[C@H](C)NC(=O)[C@@H](NC(=O)[C@H](CO)NC(=O)[C@H](Cc1ccc(O)cc1)NC(=O)[C@H](CC(=O)O)NC(=O)[C@H](CO)NC(=O)[C@@H](NC(=O)[C@H](Cc1ccccc1)NC(=O)[C@@H](NC(=O)CNC(=O)[C@@H](N)CCC(=O)O)[C@@H](C)O)[C@@H](C)CC)[C@@H](C)CC)[C@@H](C)CC)C(=O)N[C@@H](CCC(N)=O)C(=O)N[C@@H](CCC(N)=O)C(=O)N[C@@H](CC(=O)O)C(=O)N[C@@H](Cc1ccccc1)C(=O)N[C@H](C(=O)N[C@@H](CC(N)=O)C(=O)N[C@@H](Cc1c[nH]c2ccccc12)C(=O)N[C@@H](CC(C)C)C(=O)N[C@@H](CC(C)C)C(=O)N[C@@H](C)C(=O)N[C@@H](CCC(N)=O)C(=O)N[C@@H](CCCCN)C(=O)NCC(=O)N[C@@H](CCCCN)C(=O)N[C@@H](CCCCN)C(=O)N[C@@H](CC(N)=O)C(=O)N[C@@H](CC(=O)O)C(=O)N[C@@H](Cc1c[nH]c2ccccc12)C(=O)O)C(C)C)C(=O)O)C(=O)O

What follows are binders tested against T1, human GIP receptor (assay: cell-based or functional assay).

Binder | cAMP agonism % Emax [%] | cAMP antagonism [nM] | cAMP antagonism % inhib [%] | cAMP antagonism pIC50
B1 | 0 | – | – | –
B2 | 0 | 17.8 | 77 | 7.8
B3 | 0 | 12.6 | 95 | 7.9
B4 | 0 | 7.94 | 100 | 8.1
